# Data taken from article PMC11446282.
# B1: PME1 M8: PME1, M8 to alanine (protein, UniProt Q9Y570 2-386, looked up, variant M8A)
# Protein phosphatase …: SALEKSAHLGRLPSRPPLPGSGGSQSGAKMRMGPGRKRDFSPVPWSQYFESMEDVEVENETGKDTFRVYKSGSEGPVLLLLHGGGHSALSWAVFTAAIISRVQCRIVALDLRSHGETKVKNPEDLSAETMAKDVGNVVEAMYGDLPPPIMLIGHSMGGAIAVHTASSNLVPSLLGLCMIDVVEGTAMDALNSMQNFLRGRPKTFKSLENAIEWSVKSGQIRNLESARVSMVGQVKQCEGITSPEGSKSIVEGIIEEEEEDEEGSESISKRKKEDDMETKKDHPYTWRIELAKTEKYWDGWFRGLSNLFLSCPIPKLLLLAGVDRLDKDLTIGQMQGKFQMQVLPQCGHAVHEDAPDKVAEAVATFLIRHRFAEPIGGFQCVFPGC
# B2: PME1 R12: PME1, R12 to alanine (protein, UniProt Q9Y570 2-386, looked up, variant R12A)
# Protein phosphatase …: SALEKSMHLGALPSRPPLPGSGGSQSGAKMRMGPGRKRDFSPVPWSQYFESMEDVEVENETGKDTFRVYKSGSEGPVLLLLHGGGHSALSWAVFTAAIISRVQCRIVALDLRSHGETKVKNPEDLSAETMAKDVGNVVEAMYGDLPPPIMLIGHSMGGAIAVHTASSNLVPSLLGLCMIDVVEGTAMDALNSMQNFLRGRPKTFKSLENAIEWSVKSGQIRNLESARVSMVGQVKQCEGITSPEGSKSIVEGIIEEEEEDEEGSESISKRKKEDDMETKKDHPYTWRIELAKTEKYWDGWFRGLSNLFLSCPIPKLLLLAGVDRLDKDLTIGQMQGKFQMQVLPQCGHAVHEDAPDKVAEAVATFLIRHRFAEPIGGFQCVFPGC
# B3: PME1 G11: PME1, G11 to alanine (protein, UniProt Q9Y570 2-386, looked up, variant G11A)
# Protein phosphatase …: SALEKSMHLARLPSRPPLPGSGGSQSGAKMRMGPGRKRDFSPVPWSQYFESMEDVEVENETGKDTFRVYKSGSEGPVLLLLHGGGHSALSWAVFTAAIISRVQCRIVALDLRSHGETKVKNPEDLSAETMAKDVGNVVEAMYGDLPPPIMLIGHSMGGAIAVHTASSNLVPSLLGLCMIDVVEGTAMDALNSMQNFLRGRPKTFKSLENAIEWSVKSGQIRNLESARVSMVGQVKQCEGITSPEGSKSIVEGIIEEEEEDEEGSESISKRKKEDDMETKKDHPYTWRIELAKTEKYWDGWFRGLSNLFLSCPIPKLLLLAGVDRLDKDLTIGQMQGKFQMQVLPQCGHAVHEDAPDKVAEAVATFLIRHRFAEPIGGFQCVFPGC
# B4: PME1 H9: PME1, H9 to alanine (protein, UniProt Q9Y570 2-386, looked up, variant H9A)
# Protein phosphatase …: SALEKSMALGRLPSRPPLPGSGGSQSGAKMRMGPGRKRDFSPVPWSQYFESMEDVEVENETGKDTFRVYKSGSEGPVLLLLHGGGHSALSWAVFTAAIISRVQCRIVALDLRSHGETKVKNPEDLSAETMAKDVGNVVEAMYGDLPPPIMLIGHSMGGAIAVHTASSNLVPSLLGLCMIDVVEGTAMDALNSMQNFLRGRPKTFKSLENAIEWSVKSGQIRNLESARVSMVGQVKQCEGITSPEGSKSIVEGIIEEEEEDEEGSESISKRKKEDDMETKKDHPYTWRIELAKTEKYWDGWFRGLSNLFLSCPIPKLLLLAGVDRLDKDLTIGQMQGKFQMQVLPQCGHAVHEDAPDKVAEAVATFLIRHRFAEPIGGFQCVFPGC
# B5: PME1 L10: PME1, L10 to alanine (protein, UniProt Q9Y570 2-386, looked up, variant L10A)
# Protein phosphatase …: SALEKSMHAGRLPSRPPLPGSGGSQSGAKMRMGPGRKRDFSPVPWSQYFESMEDVEVENETGKDTFRVYKSGSEGPVLLLLHGGGHSALSWAVFTAAIISRVQCRIVALDLRSHGETKVKNPEDLSAETMAKDVGNVVEAMYGDLPPPIMLIGHSMGGAIAVHTASSNLVPSLLGLCMIDVVEGTAMDALNSMQNFLRGRPKTFKSLENAIEWSVKSGQIRNLESARVSMVGQVKQCEGITSPEGSKSIVEGIIEEEEEDEEGSESISKRKKEDDMETKKDHPYTWRIELAKTEKYWDGWFRGLSNLFLSCPIPKLLLLAGVDRLDKDLTIGQMQGKFQMQVLPQCGHAVHEDAPDKVAEAVATFLIRHRFAEPIGGFQCVFPGC
# System: PP2A-B55α
# Assay: Single alanine mutational scan, YFP-tagged interactors immunoprecipitated from HeLa cells, Western blot
# Type: binding, human
# Settings: single alanine mutant of YFP-tagged PME1
# Procedure: Standard cloning techniques were used throughout. Point mutations were introduced by whole plasmid polymerase chain reaction (PCR). All constructs were fully sequenced. Synthetic DNA was purchased from GeneArt, Life Technologies and cloned into pcDNA5/FRT/TO (Invitrogen) expression vector containing YFP, resulting in the indicated YFP fusion proteins. These constructs were transiently transfected into HeLa cells 24 hours before harvesting cells. Cells were lysed in lysis buffer [50 mM tris-HCl (pH 7.5), 50 mM NaCl, 1 mM EDTA, 1 mM […], and 0.1% NP-40]. Complexes were immunoprecipitated at 4°C in lysis buffer with green fluorescent protein (GFP)–Trap (ChromoTek) and washed in lysis buffer. Precipitated protein complexes were washed three times in lysis buffer, eluted in 2× SDS sample buffer, and subjected to Western blotting or MS as indicated.
row,Molecule,Experimental % binding [%]
1,B1,2
2,B2,10
3,B3,108
4,B4,88
5,B5,52
